Consider 15 molecules from patent US11882829B2, “Fusion proteins and methods for stimulating plant growth, protecting plants, and immobilizing bacillus spores on plants” (Spogen Biotech Inc., priority 2013, dated 2024).

In data set [1] the test system is corn plants at the V5 stage. The data set is described as follows: Foliar application to corn under heat and water stress (Example 38). It counts as in vivo. Particulars: for Change in plant Height over 2 week stress: foliar spray 1 ml/plant, 32.2° C., watering once per week, compared to water-only control.
The next data set has as its system Corn. The data set is described as follows: Corn growth after BEMD PhoA4 spores with or without polyphosphate (Example 11). It counts as in vivo. Particulars: Additive: Polyphosphate 0.5 mg/pot; corn height at two weeks.
Data set [2] has as its system sigma K driven genes in Bacillus cereus family members. Particulars: microarray data from Bergman et al., 2008; late sporulation, 300 minutes; cited from earlier work.

`c1ccc2snnc2c1` [Benzothiadiazole (BTH), Benzothiadiazole]: in data set [1], the “effect on growth of stressed corn” value was “positive responses” and the “Change in plant Height over 2 week stress” value is given as 7.3%. In the same order, the values of `O=C(O)c1ccccc1O` [Salicylic Acid] are “positive responses” and 5.8%.

Take Polyphosphate: the “Growth, Comparison to Water” value in the data set on Corn stood at 110.8%.

B1: BclC (SEQ ID NO: 98) (nucleic acid, listed as Bacillus anthracis)
DNA: TGAAGTATCTAGAGCTAATTTACGCAAAGGAATCTCAGGACAACACTTTCGCAACACCTATATTTTAAATTTAATAAAAAAAGAGACTCCGGAGTCAGAAATTATAAAGCTAGCTGGGTTCAAATCAAAAATTTCACTAAAACGATATTATCAATACGCAGAAAATGGAAAAAACGCCTTATCATAAGGCGTTTTTTCCATTTTTTCTTCAAACAAACGATTTTACTATGACCATTTAACTAATTTTTGCATCTACTATGATGAGTTTCATTCACATTCTCATTAGAAAGGAGAGATTTAATG
In the case of B1, the “Relative Expression (Fold increase in mRNA)” value in data set [2] is 14.44 Fold.

B2: InhA (SEQ ID NO: 100): InhA promoter (B. thuringiensis Al Hakam) (nucleic acid, listed as Bacillus thuringiensis)
DNA: TATCACATAACTCTTTATTTTTAATATTTCGACATAAAGTGAAACTTTAATCAGTGGGGGCTTTGTTCATCCCCCCACTGATTATTAATTGAACCAAGGGATAAAAAGATAGAGGGTCTGACCAGAAAACTGGAGGGCATGATTCTATAACAAAAAGCTTAATGTTTATAGAATTATGTCTTTTTATATAGGGAGGGTAGTAAACAGAGATTTGGACAAAAATGCACCGATTTATCTGAATTTTAAGTTTTATAAAGGGGAGAAATG
In the case of B2, in data set [2], the “Relative Expression (Fold increase in mRNA)” value is given as 34.25 Fold.

B3: BclA adjacent DS Glycosyl transferase promoter 2 (SEQ ID NO: 102): BclA cluster glycosyl transferase operon 2 promoter (nucleic acid, listed as Bacillus thuringiensis)
DNA: ACATAAATTCACCTCCATAAAGCGTTCATTATATAGTAGATGCAAAACCGAAAGAAAATGACACGGACATTTGAATTATTGAAAAGAAATCTTAAACTACTTGAACAATTTAAAAAAATGGAAAGTTTAGTATATGTATAACATATGATTGATTTGGAAGAGGGTGATTA
B3: in data set [2], the “Relative Expression (Fold increase in mRNA)” value is 73.96 Fold.

B4: YjcB (SEQ ID NO: 94): YjcB promoter (B. thuringiensis serovar kurstaki str. HD73) (nucleic acid, listed as Bacillus thuringiensis)
DNA: ATATATTTTCATAATACGAGAAAAAGCGGAGTTTAAAAGAATGAGGGAACGGAAATAAAGAGTTGTTCATATAGTAAATAGACAGAATTGACAGTAGAGGAGA
modifications: expressed or natural sequence
As to B4, in data set [2], the “Relative Expression (Fold increase in mRNA)” value was 70.56 Fold.

B5: BclA adjacent US Glycosyl transferase promoter 1 (SEQ ID NO: 101): BclA cluster glycosyl transferase operon 1 promoter (nucleic acid, listed as Bacillus thuringiensis)
DNA: ATTTTTTACTTAGCAGTAAAACTGATATCAGTTTTACTGCTTTTTCATTTTTAAATTCAATCATTAAATCTTCCTTTTCTACATAGTCATAATGTTGTATGACATTCCGTAGGAGGCACTTATA
modifications: expressed or natural sequence
notes: BclA cluster glycosyl transferase operon 1 promoter
B5: the “Relative Expression (Fold increase in mRNA)” value in data set [2] is on record as 72.25 Fold.

B6: BxpB/ExsFA (SEQ ID NO: 95): BxpB promoter (B. thuringiensis Al Hakam) (nucleic acid, listed as Bacillus thuringiensis)
DNA: AAACTAAATAATGAGCTAAGCATGGATTGGGTGGCAGAATTATCTGCCACCCAATCCATGCTTAACGAGTATTATTATGTAAATTTCTTAAAATTGGGAACTTGTCTAGAACATAGAACCTGTCCTTTTCATTAACTGAAAGTAGAAACAGATAAAGGAGTGAAAAACA
On to B6, for which the “Relative Expression (Fold increase in mRNA)” value in data set [2] was 30.25 Fold.

B7: Rhamnose Promoters (SEQ ID NO: 96): Rhamnose promoter (B. thuringiensis Al Hakam) (nucleic acid, listed as Bacillus thuringiensis)
DNA: ATTCACTACAACGGGGATGAGTTTGATGCGGATACATATGAGAAGTACCGGAAAGTGTTTGTAGAACATTACAAAGATATATTATCTCCATCATAAAGGAGAGATGCAAAG
modifications: expressed or natural sequence
Take B7: the “Relative Expression (Fold increase in mRNA)” value in data set [2] is reported as 75.69 Fold.

B8: ExsY (SEQ ID NO: 91): ExsY promoter (B. thuringiensis serovar konkukian str. 97-27) (nucleic acid, listed as Bacillus thuringiensis)
DNA: TAATTCCACCTTCCCTTATCCTCTTTCGCCTATTTAAAAAAAGGTCTTGAGATTGTGACCAAATCTCCTCAACTCCAATATCTTATTAATGTAAATACAAACAAGAAGATAAGGAGTGACATTAA
modifications: expressed or natural sequence
Regarding B8, the “Relative Expression (Fold increase in mRNA)” value in data set [2] is listed as 32.49 Fold.

B9: YjcA (SEQ ID NO: 93): YjcA promoter (B. thuringiensis serovar kurstaki str. HD73) (nucleic acid, listed as Bacillus thuringiensis)
DNA: TTAATGTCACTCCTTATCTTCTTGTTTGTATTTACATTAATAAGATATTGGAGTTGAGGAGATTTGGTCACAATCTCAAGACCTTTTTTTTAAATAGGCGAAAGAGGATAAGGGAAGGTGGAATTA
modifications: expressed or natural sequence
For B9, the “Relative Expression (Fold increase in mRNA)” value in data set [2] was 64 Fold.

B10: CotY (SEQ ID NO: 97) (nucleic acid, listed as Bacillus anthracis)
DNA: CGCGCACCACTTCGTCGTACAACAACGCAAGAAGAAGTTGGGGATACAGCAGTATTCTTATTCAGTGATTTAGCACGCGGCGTAACAGGAGAAAACATTCACGTTGATTCAGGGTATCATATCTTAGGATAAATATAATATTAATTTTAAAGGACAATCTCTACATGTTGAGATTGTCCTTTTTATTTGTTCTTAGAAAGAACGATTTTTAACGAAAGTTCTTACCACGTTATGAATATAAGTATAATAGTACACGATTTATTCAGCTACGTA
Regarding B10, the “Relative Expression (Fold increase in mRNA)” value in data set [2] was 79.21 Fold.

B11: BclA (SEQ ID NO: 85) (nucleic acid, listed as Bacillus anthracis)
DNA: TAATCACCCTCTTCCAAATCAATCATATGTTATACATATACTAAACTTTCCATTTTTTTAAATTGTTCAAGTAGTTTAAGATTTCTTTTCAATAATTCAAATGTCCGTGTCATTTTCTTTCGGTTTTGCATCTACTATATAATGAACGCTTTATGGAGGTGAATTTATG
Turning to B11, the “Relative Expression (Fold increase in mRNA)” value in data set [2] was 77.44 Fold.

B12: Sigma K (SEQ ID NO: 99) (nucleic acid, listed as Bacillus anthracis)
DNA: TATATCATATGTAAAATTAGTTCTTATTCCCACATATCATATAGAATCGCCATATTATACATGCAGAAAACTAAGTATGGTATTATTCTTAAATTGTTTAGCACCTTCTAATATTACAGATAGAATCCGTCATTTTCAACAGTGAACATGGATTTCTTCTGAACACAACTCTTTTTCTTTCCTTATTTCCAAAAAGAAAAGCAGCCCATTTTAAAATACGGCTGCTTGTAATGTACATTA
B12: the “Relative Expression (Fold increase in mRNA)” value in data set [2] is recorded as 64 Fold.
